Reference: patent US20240239892A1 (SUZHOU KANOVA BIOPHARMACEUTICAL, published 2024)
Numbering of substitutions follows the chain as printed.

Legend:
[1] = molecular target: T1, PD-1 (analyte of the SPR assay of Example 3) (human, UniProt Q15116 21-167, limits assumed); assay: SPR (Biacore 8K), antibody captured by anti-human Fc, PD-1 as analyte
T1 construct: also called human PD-1
Protocol: Anti-human Fc gamma specific antibody (Jackson ImmunoResearch #109-005-098) was immobilized onto the sensor chip using amine coupling method. […] After equilibration, PD-1 was injected for 200 seconds (association phase) followed by the injection of running buffer for 600s (dissociation phase). Responses of reference flow cell (flow cell 1) were subtracted from those of humanized antibodies flow cells during each cycle. The surface was regenerated before the injection of other humanized antibodies. The process was repeated until all antibodies are analyzed. The off-rates of humanized antibodies were obtained from fitting the experimental data locally to 1:1 interaction model using the Biacore 8K evaluation software. The antibodies were ranked by their dissociation rate constants (off-rates, kd).

[2] = molecular target: T2, cynomolgus PD-1/His protein (ACROBiosystems #PD1-C5223) (cynomolgus, UniProt B0LAJ3 25-170); assay: ELISA, plate coated with cynomolgus PD-1/His
T2 construct: Commercial protein
T2 sequence (B0LAJ3 entry or part of it limits assumed): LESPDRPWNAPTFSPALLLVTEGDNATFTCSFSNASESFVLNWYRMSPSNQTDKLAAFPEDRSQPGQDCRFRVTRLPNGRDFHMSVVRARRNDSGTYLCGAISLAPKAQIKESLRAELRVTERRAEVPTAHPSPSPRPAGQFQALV
Protocol: (§1) MaxiSorp 96-well plates (NUNC #449824) were coated with 2 μg/mL human PD-1/His (in-house production) or cynomolgus PD-1/His protein (ACROBiosystems #PD1-C5223) in 1× PBS (50 μL/well). Plates were incubated at 4° C. overnight. Coating solution was removed and plates were washed once with 200 μL/well PBST (1× PBS containing 0.05% tween-20). Then 200 μL/well blocking buffer (1× PBS with 0.05% tween-20, 3% BSA) was added and incubated at room temperature for 1 hour. Blocking buffer was removed and plates were washed with three times with 200 μL/well PBST. […] Plates were incubated at room temperature for 2 hours. Antibodies in the wells were removed and plates were washed three times with 200 μL/well PBST. Goat anti-human IgG (H&L)-HRP secondary antibody (Jackson Immuno Research #109-035-088) was diluted 1:5000 in 1× PBS and added to each well (50 μL/well). Plates were incubated at room temperature for 1 hour. Secondary antibody was removed and plates were washed five times with 200 μL/well PBST. 50 μL/well TMB (eBioscience #85-00-4201-56) was added and plates were incubated at room temperature for several minutes. Then 50 μL/well 2N H2SO4 was added to stop the reaction. Optical density was measured at 450 nm.

[3] = molecular target: T3, chimeric PD-1 receptor on Jurkat cells (Jurkat/PD-1-CD3z/NF-luci cells) (human, UniProt Q15116 25-191; P20963 52-164, limits assumed); assay: flow cytometry on human PD-1-expressing Jurkat cells
T3 construct: domain: extracellular and transmembrane domains;domain: cytoplasmic domain; also called human PD-1 expressed on Jurkat; Human PD-1-expressing Jurkat cells
T3 sequence (Q15116 other isoform, or with tags, fused parts or gaps mutant limits assumed): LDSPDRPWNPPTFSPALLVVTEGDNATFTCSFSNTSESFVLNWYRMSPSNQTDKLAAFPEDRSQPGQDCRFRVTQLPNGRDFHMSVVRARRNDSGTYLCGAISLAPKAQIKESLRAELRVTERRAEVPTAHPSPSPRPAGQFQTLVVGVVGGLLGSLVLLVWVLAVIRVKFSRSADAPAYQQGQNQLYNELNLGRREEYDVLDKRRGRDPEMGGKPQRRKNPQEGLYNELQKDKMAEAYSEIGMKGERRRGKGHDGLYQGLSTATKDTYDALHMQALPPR
Protocol: Then cells were washed once by FACS buffer (PBS with 2% FBS) and incubated with Alexa Fluor 594 AffiniPure Goat Anti-human IgG secondary antibody (Jackson ImmunoResearch #109-585-088) at 4° C. for 30 minutes. After washed once by FACS buffer, cells were resuspended in 200 μL FACS buffer. The cells after staining were analyzed by BD LSRFortessa Flow Cytometer.

[4] = molecular target: T4, his-tagged human PD-1 recombinant protein (PD-1/6His, in-house production, extracellular domain Pro21-Gln167) (human, UniProt Q15116 21-167); assay: ELISA, plate coated with human PD-1/His; human PD-1
T4 construct: range 21-167; also called human PD-1/His; not shown: 6His tag
T4 sequence (Q15116 21-167 limits assumed): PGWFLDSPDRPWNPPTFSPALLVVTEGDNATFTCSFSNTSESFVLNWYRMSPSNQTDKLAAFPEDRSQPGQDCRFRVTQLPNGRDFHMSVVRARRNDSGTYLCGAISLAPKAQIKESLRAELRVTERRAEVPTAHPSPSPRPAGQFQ
Protocol: as §1

[5] = molecular target: T3, chimeric PD-1 receptor on Jurkat cells …; assay: cell-based or functional assay

T1 sequence (Q15116 21-167 limits assumed): as above

B1: VH6 + VL1 (antibody, human IgG1, kappa, V domains shown)
VH: EVQLVESGGGLVQPGGSLRLSCAASGFTFSSYGMSWVRQAPGKRLEWVAIISGGGRDIYYLDSVKGRFTISRDNSKNTLYLQMNSLRAEDTAVYYCSSPIYDAYSFAYWGQGTLVTVSS
VL: EIVMTQSPATLSVSPGERATLSCRASQTISNNLHWYQQKPGQAPRLLIYYASQSISGIPARFSGSGSGTEFTLTISSLQSEDFAVYYCQQSYSWPLTFGGGTKLEIKR
notes: Humanized full-length IgG expressed in HEK293; For SPR it was captured from culture medium through its Fc; also called HC1 + LC1
- Kd [1]: 3.57 nM
- koff [1]: 0.000404 s⁻¹
- kon [1]: 113000 M⁻¹ s⁻¹

B2: VH6 + VL6 (antibody, human IgG1, kappa, V domains shown)
VH: B1 VH
VL: B1 VL with M4L, Q37H, Y49K, A60S, E70D, Y87F
notes: Humanized full-length IgG expressed in HEK293; also called HC1 + LC2
- Kd [1]: 0.812 nM
- koff [1]: 0.000127 s⁻¹
- kon [1]: 156000 M⁻¹ s⁻¹

B3: VH7 + VL1 (antibody, human IgG1, kappa, V domains shown)
VH: B1 VH with R44G, T78N
VL: B1 VL
notes: Humanized full-length IgG expressed in HEK293; also called HC2 + LC1
- Kd [1]: 3.04 nM
- koff [1]: 0.000317 s⁻¹
- kon [1]: 104000 M⁻¹ s⁻¹

B4: anti-PD-1 antibody VH7+VL6 (antibody, human IgG1, kappa, V domains shown)
VH: B1 VH with R44G, T78N
VL: B1 VL with M4L, Q37H, Y49K, A60S, E70D, Y87F
notes: also called HC2 + LC2
- EC50 [2]: 0.4 nM
- EC50 [3]: 2.16 nM
- EC50 [4]: 0.1 nM
- Kd [1]: 1.41 nM
- koff [1]: 0.000218 s⁻¹
- kon [1]: 154000 M⁻¹ s⁻¹
- EC50 (nM), inhibition of luciferase signal [5]: 0.38 nM

B5: Chimeric VH + VL (antibody, human IgG1, kappa, V domains shown)
VH: EVKLVESGGGLVKPGGSLKLSCAASGFTFSSYGMSWVRQTPEKRLEWVAIISGGGRDIYYLDSVKGRFTISRDNAKNNLYLQMSSLRSEDTAFYYCSSPIYDAYSFAYWGQGTLVTVSA
VL: DIVLVQSPATLSVTPGDSVSLSCRASQTISNNLHWYHQKSHESPRLLIKYASQSISGIPSRFSGSGSGTDFTLSINSVETEDFGMYFCQQSYSWPLTFGAGTNLELKR
notes: also called Parental mouse VH+VL combined with human Fc; parental antibody
- Kd [1]: 0.787 nM
- koff [1]: 0.000163 s⁻¹
- kon [1]: 207000 M⁻¹ s⁻¹
